From patent publication US20250250357A1 (NANJING ZAIMING PHARMACEUTICAL, published 2025)
Substitutions are numbered along the chain they refer to.

T1: monkey MSLN on HEK293T-monkey MSLN recombinant cells (monkey)
T1 construct: Full-length precursor as transfected; processing on the cell is not described; also called HEK293-monkey MSLN
T1 chain: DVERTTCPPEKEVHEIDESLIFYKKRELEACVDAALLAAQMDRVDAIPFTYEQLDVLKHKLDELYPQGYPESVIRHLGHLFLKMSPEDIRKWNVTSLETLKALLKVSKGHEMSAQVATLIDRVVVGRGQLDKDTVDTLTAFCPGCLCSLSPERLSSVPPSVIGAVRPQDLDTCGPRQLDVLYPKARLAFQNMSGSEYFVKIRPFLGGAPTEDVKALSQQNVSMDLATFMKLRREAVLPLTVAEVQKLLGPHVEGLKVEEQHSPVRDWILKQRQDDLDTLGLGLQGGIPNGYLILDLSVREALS

B1: F3.80.22-H2 (scFv, not shown: small tags and cut ends)
scFv: DIVMTQTPLSLPVTPGEPASISCRSSQSLEHNNGNTYLHWFLQKPGQSPQLLIYKVSNRFSGVPDRFSGSGSGTDFTLKISRVEAEDVGVYYCSQSTHVPFTFGQGTKLEIKGGGGSGGGGSGGGGSEVQLVQSGAEVKKPGATVKISCKASGYTFTDYEIHWVQQAPGKGLEWMGAFDPEIGGSAYNQKFKDRVTITADKSTSTAYMELSSLRSEDTAVYYCTDYYGSSSGYFDVWGQGTTVTVSS
notes: also called S009-F3.80.22 humanized antibody VL1 + VH2
B2: F3.80.22-H5 (scFv, not shown: small tags and cut ends)
scFv: B1 scFv with N33D, A151V, S204D
notes: also called S009-F3.80.22 humanized antibody VL1a + VH1
B3: F3.80.22-H7 (scFv, not shown: small tags and cut ends)
scFv: B1 scFv with N33D, Q239T
notes: also called S009-F3.80.22 humanized antibody VL1a + VH3
B4: F3.80.22-H1 (scFv, not shown: small tags and cut ends)
scFv: B1 scFv with A151V, S204D
notes: also called S009-F3.80.22 humanized antibody VL1 + VH1
B5: F3.80.22-H3 (scFv, not shown: small tags and cut ends)
scFv: B1 scFv with Q239T
notes: also called S009-F3.80.22 humanized antibody VL1 + VH3
B6: F3.80.22-H8 (scFv, not shown: small tags and cut ends)
scFv: B1 scFv with N33D, T203S, Q239T
notes: also called S009-F3.80.22 humanized antibody VL1a + VH4
B7: F3.80.22-H6 (scFv, not shown: small tags and cut ends)
scFv: B1 scFv with N33D
notes: also called S009-F3.80.22 humanized antibody VL1a + VH2
B8: F3.80.22-H10 (scFv, not shown: small tags and cut ends)
scFv: B1 scFv with Q43H
notes: also called S009-F3.80.22 humanized antibody VL2 + VH2
B9: F3.80.22-H4 (scFv, not shown: small tags and cut ends)
scFv: B1 scFv with T203S, Q239T
notes: also called S009-F3.80.22 humanized antibody VL1 + VH4
B10: F3.80.22-H17 (scFv, not shown: small tags and cut ends)
scFv: EVQLVQSGAEVKKPGATVKISCKVSGYTFTDYEIHWVQQAPGKGLEWMGAFDPEIGGSAYNQKFKDRVTITADKSTDTAYMELSSLRSEDTAVYYCTDYYGSSSGYFDVWGQGTTVTVSSGGGGSGGGGSGGGGSDIVMTQTPLSLPVTPGEPASISCRSSQSLEHNDGNTYLHWFLQKPGQSPQLLIYKVSNRFSGVPDRFSGSGSGTDFTLKISRVEAEDVGVYYCSQSTHVPFTFGQGTKLEIK
notes: also called S009-F3.80.22 humanized antibody VH1 + VL1a
B11: S009-F7.25.19 chimeric antibody (antibody, human IgG1, kappa, V domains shown)
VH: QVQLQQPGTELVKPGASVKLSCKASGYTFTSYWMHWVKQRPGQGLEWIGNIIPSNGGTKYNEKFKSKATLTVDKSSSTAYMQLSSLTSEDSAVYYCSPHYYGGSPGFAYWGQGTLITVSA
VL: DIVMTQSQKFMSTSVGDRVSVICKASQNVGTNVAWYQQKPGQSPKALIYSASYRYSGVPDRFTGSGSGTDFTLTISNVQSEDLAEYFCQQYNSYPLTFGGGTKLEIKR
notes: Human-murine chimeric antibody, human IgG1/kappa constant regions
B12: S009-F7.21.16 (antibody, human IgG1, kappa, V domains shown)
VH: QVQLQQPGTELVKPGASVKLSCKASGYTFTTFWMHWVKQRPGQGLEWIGGVNPTNGGTNYNEKFRTKATLTVDKSSTTADMQLSSLTSEDSAVYYCAPHYISSRPGFAYWGQGTLVTVSG
VL: B11 VL with V15G, I22T, T72I
notes: Human-murine chimeric antibody, human IgG1 heavy and kappa light constant regions
B13: S009-F7.69.8 (antibody, human IgG1, kappa, V domains shown)
VH: EVHLQQSGPELVKPGASVRIPCKASGYTFTDYNMDWVKQSHGKSLEWIGDINPDNGGTIYTQKFKGKATLTVDKSSSTAYMELRSLTSEDTAVYYCARRLHYYGSSGLDYWGQGTTLTVSS
VL: DIQMTQSPASLSAYVGETVTITCRASGNIHNYLAWYQQKQGKSPQLLVYNAKTLADGVPSRFSGSGSGTQYSLKINSLQPEDFGSYYCQHFWSTVWTFGGGTKLEIKR
notes: as for B12

molecular target: T2, human MSLN-R3 on HEK293T-hMSLN-R3 recombinant cells (human, UniProt Q13421 487-606); experiment: FACS, HEK293T-hMSLN-R3 cells
T2 construct: the C-terminal limit is uncertain; also called human MSLN-R3 membrane protein
T2 sequence (Q13421 495-614): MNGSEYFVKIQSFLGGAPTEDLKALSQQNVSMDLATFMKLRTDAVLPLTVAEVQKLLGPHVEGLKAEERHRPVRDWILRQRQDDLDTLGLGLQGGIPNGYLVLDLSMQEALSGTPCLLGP

Row | Binder | EC50 [nM] | Maximum_MFI [MFI]
1 | B1 | 0.67 | 1790
2 | B2 | 5.29 | 1370
3 | B3 | 3.91 | 1530
4 | B4 | 2.14 | 1700
5 | B5 | 4.41 | 1750
6 | B6 | 10.2 | 1400
7 | B7 | 8.39 | 1440
8 | B8 | 1.99 | 1800
9 | B9 |  | 1410
10 | B10 | 4.41 | 1790

Molecular target: T1, monkey MSLN on HEK293T-monkey MSLN …
Experiment: FACS, HEK293T-monkey MSLN cells

Row | Binder | Maximum_MFI [MFI] | binding result
11 | B1 | 303 | no binding
12 | B2 | 302 | no binding
13 | B3 | 329 | no binding
14 | B4 | 278 | no binding
15 | B5 | 330 | no binding
16 | B6 | 317 | no binding
17 | B7 | 338 | no binding
18 | B8 | 381 | no binding
19 | B9 | 357 | no binding
20 | B10 | 356 | no binding

molecular target: T3, human MSLN-FL-his protein (human, UniProt Q13421 296-580); experiment: ELISA, coated antigen, antibody 2 nM
T3 construct: Made in HEK293E cells, purified on nickel column; also called hMSLN-FL-his; human MSLN full-length protein; not shown: His tag
T3 sequence (Q13421 other isoform, or with tags, fused parts or gaps): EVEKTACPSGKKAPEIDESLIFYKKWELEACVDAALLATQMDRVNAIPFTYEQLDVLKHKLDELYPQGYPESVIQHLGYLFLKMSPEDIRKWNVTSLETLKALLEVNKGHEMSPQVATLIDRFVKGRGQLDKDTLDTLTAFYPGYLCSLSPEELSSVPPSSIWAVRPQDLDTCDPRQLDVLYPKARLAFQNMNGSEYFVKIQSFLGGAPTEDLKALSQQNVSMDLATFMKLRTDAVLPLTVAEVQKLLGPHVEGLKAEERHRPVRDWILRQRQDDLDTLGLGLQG

Row | Binder | OD450
21 | B11 | 2.39

molecular target: T3, human MSLN-FL-his protein; experiment: ELISA, coated antigen, antibody 20 nM

Row | Binder | OD450
22 | B11 | 2.48

molecular target: T3, human MSLN-FL-his protein; experiment: ELISA, coated antigen, antibody 0.2 nM

Row | Binder | OD450
23 | B11 | 2.4

molecular target: T3, human MSLN-FL-his protein; experiment: ELISA, coated antigen, antibody 200 nM

Row | Binder | OD450
24 | B11 | 2.32

molecular target: T4, human MSLN-R3-his protein (human, UniProt Q13421 487-598); experiment: ELISA on coated antigen, antibody 2 nM
T4 construct: it is put last here; also called human MSLN-R3 protein; hMSLN-R3-his; not shown: His tag
T4 sequence (Q13421 495-606): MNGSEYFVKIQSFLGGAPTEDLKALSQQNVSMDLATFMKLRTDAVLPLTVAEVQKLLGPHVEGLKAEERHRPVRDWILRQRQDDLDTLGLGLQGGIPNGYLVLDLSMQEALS

Row | Binder | OD450 [OD]
25 | B12 | 2.75
26 | B13 | 2.54

molecular target: T3, human MSLN-FL-his protein; experiment: ELISA, coated antigen, antibody 0.02 nM

Row | Binder | OD450
27 | B11 | 1.9

molecular target: T4, human MSLN-R3-his protein; experiment: ELISA on coated antigen, antibody 20 nM

Row | Binder | OD450 [OD]
28 | B12 | 2.52
29 | B13 | 2.55

molecular target: T3, human MSLN-FL-his protein; experiment: ELISA, coated antigen, antibody 0.002 nM

Row | Binder | OD450
30 | B11 | 1.25

molecular target: T4, human MSLN-R3-his protein; experiment: ELISA on coated antigen, antibody 0.2 nM

Row | Binder | OD450 [OD]
31 | B12 | 2.5
32 | B13 | 1.96

molecular target: T4, human MSLN-R3-his protein; experiment: ELISA on coated antigen, antibody 200 nM

Row | Binder | OD450 [OD]
33 | B12 | 2.92
34 | B13 | 2.56

molecular target: T3, human MSLN-FL-his protein; experiment: ELISA, coated antigen, antibody 0.0002 nM

Row | Binder | OD450
35 | B11 | 0.52

molecular target: T4, human MSLN-R3-his protein; experiment: ELISA on coated antigen, antibody 0.02 nM

Row | Binder | OD450 [OD]
36 | B12 | 1.32
37 | B13 | 0.38

molecular target: T3, human MSLN-FL-his protein; experiment: ELISA, coated antigen, no antibody (blank)

Row | Binder | OD450
38 | B11 | 0.06

molecular target: T4, human MSLN-R3-his protein; experiment: ELISA on coated antigen, antibody 0.002 nM

Row | Binder | OD450 [OD]
39 | B12 | 0.71
40 | B13 | 0.11

molecular target: T4, human MSLN-R3-his protein; experiment: ELISA on coated antigen, antibody 0.0002 nM

Row | Binder | OD450 [OD]
41 | B12 | 0.31
42 | B13 | 0.06

molecular target: T5, human MSLN-hFc recombinant protein (human, UniProt Q13421 296-580); experiment: SPR (Biacore 8K), MSLN-hFc captured, antibody injected
T5 construct: Captured by an anti-human IgG antibody on the chip; also called human MSLN protein; Acro MSN-H5253
T5 sequence (Q13421 other isoform, or with tags, fused parts or gaps): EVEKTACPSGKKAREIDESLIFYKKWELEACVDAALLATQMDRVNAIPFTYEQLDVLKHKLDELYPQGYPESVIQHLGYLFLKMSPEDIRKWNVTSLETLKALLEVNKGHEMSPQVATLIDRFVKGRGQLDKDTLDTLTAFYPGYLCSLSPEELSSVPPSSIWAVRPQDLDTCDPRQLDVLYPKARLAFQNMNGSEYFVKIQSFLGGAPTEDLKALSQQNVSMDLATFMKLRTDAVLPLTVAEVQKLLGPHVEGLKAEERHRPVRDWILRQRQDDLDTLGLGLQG

Row | Binder | Kd [nM] | koff [s⁻¹] | kon [M⁻¹ s⁻¹]
43 | B2 | 159 | 0.000565 | 3560
44 | B8 | 20.9 | 0.000177 | 8470

molecular target: T4, human MSLN-R3-his protein; experiment: ELISA on coated antigen, no antibody (blank, column 'none')

Row | Binder | OD450 [OD]
45 | B12 | 0.08
46 | B13 | 0.07
